Results reported in patent US20050019801A1, “Stem cell-based methods for identifying and characterizing agents” (Curis, Inc., priority 2003, published 2005).
“Also recorded” adds a separate entry of the source.

Experiments:
[1] = system: (HB9-GFP)-mouse embryonic stem cells; assay: Motor neuron differentiation of (HB9-GFP)-mouse embryonic stem cell embryoid bodies, GFP by fluorescent or confocal microscopy; type: cell-based; conditions: one day 100 nM RA and 50 ng/ml Sonic hedgehog protein, then three days with agent, fluorescent microscopy
Description: Briefly, mouse embryonic stem cells expressing GFP under the control of the HB9 promoter were cultured to confluence, trypsinized, and allowed to reaggregate to form embryoid bodies. The embryoid bodies were treated for one day with 100 nM RA and 50 ng/ml Sonic hedgehog protein. Subsequently, the embryoid bodies were cultured for three days with a previously identified hedgehog, small molecule agonist. Cultured embryoid bodies were analyzed by fluorescent and bright filed microscopy (FIG. 2).
As outlined above, the stem cell based methods of the invention can be used in many ways including, but not limited to, as a primary screen to identify agents that promote differentiation without regard to the mechanism of action; as a primary screen to identify agents that promote differentiation and that may act by agonizing or antagonizing a particular signaling pathway; or as a secondary screen to confirm that an agent that agonizes or antagonizes a particular signaling pathway also functions to promote differentiation along a particular lineage. […] Briefly, several small molecules were previously identified in a screen to identify agonists of the hedgehog signaling pathway. […] Mouse embryonic stem cells expressing GFP under the control of the HB9 promoter were cultured to confluence, trypsinized, and allowed to reaggregate to form embryoid bodies. The embryoid bodies were treated for one day with 100 nM RA and 50 ng/ml Sonic hedgehog protein. Subsequently, the embryoid bodies were cultured for three days with one of three previously identified hedgehog, small molecule agonists. Cultured embryoid bodies were analyzed by fluorescent microscopy for expression of GFP (FIG. 3).
Mouse embryonic stem cells were cultured and treated as described above. Following three days of culture in the presence of the hedgehog agonist, embryoid bodies were analyzed by confocal microscopy to allow analysis of sections throughout the embryoid body. Confocal images were compared to confocal images of embryoid bodies cultured in the absence of hedgehog agonist.
By way of example, known antagonists of BMP signaling include noggin, chordin, follistatin, cerberus, Dan, gremlin, ectodin, sclerostin, and ventroptin. Known antagonists of Wnt signaling include sFRP, WIF, dkk, and Cerberus. Briefly, mouse embryonic stem cells expressing GFP under the control of the HB9 promoter were cultured to confluence, trypsinized, and allowed to reaggregate to form embryoid bodies. The embryoid bodies were treated for one day with 100 nM RA and 50 ng/ml Sonic hedgehog protein. Subsequently, the embryoid bodies were cultured for three days with one of the following: 98 (a small molecule hedgehog agonist), chordin (a BMP antagonist), noggin (a BMP antagonist), gremlin (a BMP antagonist), Dan (a BMP antagonist), PTN (a neurotrophic factor), sFRP2 (a Wnt antagonist), dkk1 (a Wnt antagonist). Cultured embryoid bodies were analyzed by fluorescent microscopy for expression of GFP (FIG. 9).
Embryoid bodies were differentiated as described above for FIG. 9. […] Note, however, the morphological differences among cells types differentiated using each agent. Embryoid bodies treated with a Wnt antagonist were flatter than embryoid bodies treated with a BMP antagonist.

[2] = system: Mouse embryonic stem cells (embryoid bodies); assay: Combinations of agents promoting motor neuron differentiation from embryoid bodies, HB9 expression; type: cell-based; conditions: agent plus the same sub-threshold concentration of small molecule hedgehog agonist (Ag1.3)
Description: BMP antagonists and Wnt antagonists synergized with hedgehog agonists to promote motor neuron differentiation from embryoid bodies. Briefly, mouse embryonic stem cells were cultured, as described above.

B1: gremlin: a BMP antagonist (protein, UniProt O60565 25-184, looked up)
Gremlin-1: KKKGSQGAIPPPDKAQHNDSEQTQSPQQPGSRNRGRGQGRGTAMPGEEVLESSQEALHVTERKYLKRDWCKTQPLKQTIHEEGCNSRTIINRFCYGQCNSFYIPRHIRKEEGSFQSCSFCKPKKFTTMMVTLNCPELQPPTKKKRVTRVKQCRCISIDLD
In the case of B1, the “motor neuron differentiation, as measured by expression of the HB9 promoter-driven transgene (GFP)” value (shortened to “motor neuron differentiation … (GFP)”) [1] is reported as “robustly promoted motor neuron differentiation; also recorded: differentiated along a motor neuron lineage” and the “motor neuron differentiation, as measured by expression of HB9” value (“motor neuron differentiation … of HB9” for short) [2] is reported as “promoted motor neuron differentiation”.

B2: dkk1: a Wnt antagonist (protein, UniProt O94907 32-266, looked up)
Dickkopf-related protein 1: TLNSVLNSNAIKNLPPPLGGAAGHPGSAVSAAPGILYPGGNKYQTIDNYQPYPCAEDEECGTDEYCASPTRGGDAGVQICLACRKRRKRCMRHAMCCPGNYCKNGICVSSDQNHFRGEIEETITESFGNDHSTLDGYSRRTTLSSKMYHTKGQEGSVCLRSSDCASGLCCARHFWSKICKPVLKEGQVCTKHRRKGSHGLEIFQRCYCGEGLSCRIQKDHHQASNSSRLHTCQRH
B2 was tested, and the “motor neuron differentiation … (GFP)” value [1] was “robustly promoted motor neuron differentiation; also recorded: differentiated along a motor neuron lineage”.

B3: noggin: a BMP antagonist (protein, UniProt Q13253 28-232, looked up)
Noggin: QHYLHIRPAPSDNLPLVDLIEHPDPIFDPKEKDLNETLLRSLLGGHYDPGFMATSPPEDRPGGGGGAAGGAEDLAELDQLLRQRPSGAMPSEIKGLEFSEGLAQGKKQRLSKKLRRKLQMWLWSQTFCPVLYAWNDLGSRFWPRYVKVGSCFSKRSCSVPEGMVCKPSKSVHLTVLRWRCQRRGGQRCGWIPIQYPIISECKCSC
In the case of B3, the “motor neuron differentiation … (GFP)” value [1] is reported as “robustly promoted motor neuron differentiation; also recorded: differentiated along a motor neuron lineage” and the “motor neuron differentiation … of HB9” value [2] is reported as “promoted motor neuron differentiation”.

B4: sFRP2: a Wnt antagonist (protein, UniProt Q96HF1 25-295, looked up)
Secreted frizzled-related …: LFLFGQPDFSYKRSNCKPIPANLQLCHGIEYQNMRLPNLLGHETMKEVLEQAGAWIPLVMKQCHPDTKKFLCSLFAPVCLDDLDETIQPCHSLCVQVKDRCAPVMSAFGFPWPDMLECDRFPQDNDLCIPLASSDHLLPATEEAPKVCEACKNKNDDDNDIMETLCKNDFALKIKVKEITYINRDTKIILETKSKTIYKLNGVSERDLKKSVLWLKDSLQCTCEEMNDINAPYLVMGQKQGGELVITSVKRWQKGQREFKRISRSIRKLQC
B4 was tested, and the “motor neuron differentiation … (GFP)” value [1] was “differentiated along a motor neuron lineage”, the “motor neuron differentiation … (GFP)” value ([1]; listed as sFRP) was “robustly promoted motor neuron differentiation” and the “motor neuron differentiation … of HB9” value [2] was “promoted motor neuron differentiation”.

B5: PTN: a neurotrophic factor (protein, UniProt P21246 33-168, looked up)
Pleiotrophin: GKKEKPEKKVKKSDCGEWQWSVCVPTSGDCGLGTREGTRTGAECKQTMKTQRCKIPCNWKKQFGAECKYQFQAWGECDLNTALKTRTGSLKRALHNAECQKTVTISKPCGKLTKPKPQAESKKKKKEGKKQEKMLD
B5 was tested, and the “motor neuron differentiation … (GFP)” value [1] was “robustly promoted motor neuron differentiation”.
